The data set relates to MS2 coat protein. In words: apparent KD of MS2 coat protein; higher = weaker reporter binding. To be noted: Eterna round: R107. In outline: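 Titration buffer: 100 mM Tris-HCl pH 7.5, 80 mM KCl, 4 mM MgCl2, without or with constant ligand. Designed RNA switches transcribed on-chip from Illumina sequencing clusters received SNAP-549-labelled MS2 coat protein in twofold steps from 0.7 or 1.5 nM to 3 µM. Apparent KD is the median per design of fits to normalised cluster binding curves.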

The mark [1] stands for this setting: input ligand: theophylline 20 uM.
The mark [2] stands for this setting: input ligand: theophylline 2 mM.
Where [3] appears, read: input ligand: tryptophan 2.4 mM.

As for “UGAUUGAACGGAAGGAGCGUGAAGAGAGAGAAACAUGAGGAUCACCCAUGUAGAGAGAGAACACAGGUAGGUCGCCGAGAGAUUG [11.B]”, the “apparent KD of MS2 coat protein” value runs as follows: (input ligand: arginine 13.2 mM) 14.5 nM; (input ligand: none) 13.4 nM; under setting [1], 21.2 nM; under setting [2], 14.7 nM; under setting [3], 11.2 nM.
“UGCAUGAGGAUCGCCCGUGUCGAGCCGGUGCGAGGACCGGUACGGCCGCCACUCGAGACAUGAGGAUCACCCAUGUUGUGCGUGA [Exclusion Tryptophan A GF24]”: the “apparent KD of MS2 coat protein” value is, setting by setting: (input ligand: arginine 13.2 mM) 27.9 nM; under setting [1], 79.5 nM; under setting [2], 56.4 nM.
Turning to “UGCGGACAUGAGGAUCACCCAUGUGCGGAUACCAGCAGCCGGCUCUGCCCUUGGCAGCCGCUACCCUUGCACGUUUAACGAUCCA [theeternabot_sameState_MS2_Theo_A_27]”, the “apparent KD of MS2 coat protein” value stood at 31.9 nM (input ligand: arginine 13.2 mM), 60.2 nM under setting [1] and 50.1 nM under setting [3].
On to “UGCUGACAAGGACAUGGAUGAUCAGCUGAUACCAGCCUGGAAACAGGCCCUUGGCAGCAGCACAUGAGGAUCACCCAUGUAAUAA [(T)'-(M)'-(T1)-(T2)-(M1)-(M2)_Design3(Mismatches)]”, for which the “apparent KD of MS2 coat protein” value was 28.4 nM (input ligand: arginine 13.2 mM), 78.1 nM under setting [1] and 27.2 nM under setting [3].
In the case of “UGGAGUAGGACGGCCGCCACUAUACAAUGUGUAUACAUGAGGAUCACCCAUGUAAUCCUCGGAGAUAGGACCGGGUCAAGUUGUG [X-tryptB-ms2@35]”, the “apparent KD of MS2 coat protein” value was found to be 39.4 nM (input ligand: arginine 13.2 mM), 85.4 nM under setting [1] and 59.8 nM under setting [2].
As for “UGGCAAGAGGGAAGGAGCGUCAGCAGAGUCACAUGAGGAUCACCCAUGUAGCACGUGGUGUGACAGGUAGGUCGCCCUCUGCCGU [SS-ArgB12]”, the “apparent KD of MS2 coat protein” value turned out to be 24.3 nM (input ligand: arginine 13.2 mM); 15.1 nM (input ligand: none); 30.7 nM under setting [1]; 21.8 nM under setting [2]; 22.1 nM under setting [3].
In the case of “UGGCAAGAGGGAAGGAGCGUCAGCUGAGUCACAUGAGGAUCACCCAUGUAGCACAUGGUGUGACAGGUAGGUCGCCCUCUGCCGU [SS-ArgB11]”, the “apparent KD of MS2 coat protein” value (input ligand: arginine 13.2 mM) was found to be 34.4 nM; the “apparent KD of MS2 coat protein” value (input ligand: none) was determined as 21.5 nM; the “apparent KD of MS2 coat protein” value under setting [1] worked out at 36.6 nM; the “apparent KD of MS2 coat protein” value under setting [2] is 28.8 nM; the “apparent KD of MS2 coat protein” value under setting [3] amounted to 23.7 nM.
On to “UGGUACAUGAGGAUCACCCAUGUUCCAGAUACCAGCGUCCCGGUGCGCCCUUGGCAGCUGGUGGUACAUGAGGAUCACCCAUGUG [Exclusion Theophylline A GF14]”, for which the “apparent KD of MS2 coat protein” value is, setting by setting: (input ligand: arginine 13.2 mM) 35.2 nM; (input ligand: none) 40.2 nM; under setting [1], 50 nM; under setting [2], 61.2 nM; under setting [3], 44.9 nM.
For the sequence “UGGUACAUGGCGGCCGCCACUUCACGUAAAAUAAAAACGUGAGGAUCACCCACGUAAUAAGUUGGGAGGACCGGGUCAUGUACCU”, the “apparent KD of MS2 coat protein” value (input ligand: arginine 13.2 mM) is 122 nM; the “apparent KD of MS2 coat protein” value (input ligand: none) stood at 321 nM; the “apparent KD of MS2 coat protein” value under setting [1] was 344 nM; the “apparent KD of MS2 coat protein” value under setting [2] was 491 nM; the “apparent KD of MS2 coat protein” value under setting [3] was determined as 123 nM.
With “UGGUACUAGGCGGCCGCCACUGGGUGAUACAUGAGGAUCACCCAUGUUUAAUGCCGAGAGGCAACUAGGACCGGGCCUAGUACAU”, the “apparent KD of MS2 coat protein” value runs as follows: (input ligand: arginine 13.2 mM) 101 nM; under setting [1], 339 nM; under setting [2], 586 nM.
As to “UGUAACAUGAGGAUCACCCAUGUAAGUGAUACCAGAUAAGUAGUAGUCCCUUGGCAGCAUAUUGGGCGAGUGUAUAGUCUAUACG [Same State - Theophylline A (Freestyle 7)]”, the “apparent KD of MS2 coat protein” value runs as follows: (input ligand: arginine 13.2 mM) 39.9 nM; under setting [1], 69.8 nM; under setting [3], 49.7 nM.
With “UGUACCAUGUCGGCCGCCACUCAUGAUAAGCAUGAGGAUCACCCAUGUAGCGUCAAAGACGCUAUGAGGACCGGGACAUGGUACU [TryBS Zipper 2]”, the “apparent KD of MS2 coat protein” value is, setting by setting: (input ligand: arginine 13.2 mM) 34.3 nM; (input ligand: none) 34.7 nM; under setting [1], 47.1 nM; under setting [2], 41.2 nM; under setting [3], 13.2 nM.
On to “UGUACUAUGUGAAGGAGCGAGAAGGAGCGAACAUGAGGAUCACCCAUGUACAGGUAGGUCGCUCAGGUAGGUCGCACAUAGUACU [ArgBS - Double aptamer]”, for which the “apparent KD of MS2 coat protein” value reads like this: (input ligand: arginine 13.2 mM) 13.2 nM; (input ligand: none) 9.94 nM; under setting [1], 14.6 nM; under setting [2], 14.4 nM; under setting [3], 11.7 nM.
In the case of “UGUAUGGACUGAAGGAGCGGAUGAUAAUCUGAGGAUCACCCAGGUAAUAAGGCGAAAGCCAUCCAGGUAGGUCGCAGUCCAUACU”, the “apparent KD of MS2 coat protein” value runs as follows: (input ligand: arginine 13.2 mM) 40.9 nM; (input ligand: none) 82.9 nM; under setting [1], 96.9 nM; under setting [2], 111 nM; under setting [3], 103 nM.
For the sequence “UGUAUGGACUGAAGGAGCGGUAGAUAGCUUGAGGAUCACCCAAGUAAUAAGGCGAAAGCCUACCAGGUAGGUCGCAGUCCAUACU”, the “apparent KD of MS2 coat protein” value (input ligand: arginine 13.2 mM) came out at 28 nM; the “apparent KD of MS2 coat protein” value (input ligand: none) is 25.4 nM; the “apparent KD of MS2 coat protein” value under setting [1] came to 30.8 nM; the “apparent KD of MS2 coat protein” value under setting [2] amounted to 26.9 nM; the “apparent KD of MS2 coat protein” value under setting [3] turned out to be 27.9 nM.
Consider “UGUAUGUGAUCUGAUACCAGAGUUGAUAACCUGAGGAUCACCCUGGUAAGGCGAAAGCCACUCCCUUGGCAGCAGAUCGCAUACU”, for which the “apparent KD of MS2 coat protein” value is, setting by setting: (input ligand: arginine 13.2 mM) 131 nM; (input ligand: none) 86.1 nM; under setting [1], 67.4 nM; under setting [2], 18.3 nM; under setting [3], 101 nM.
As for “UGUAUGUGAUCUGAUACCAGUCCAACUGGUAAAGCAUGAGGAUCACCCAUGUAAAAUUGGGACCCUUGGCAGCAGAUCGCAUACU”, the “apparent KD of MS2 coat protein” value runs as follows: (input ligand: arginine 13.2 mM) 146 nM; (input ligand: none) 166 nM; under setting [1], 190 nM; under setting [2], 316 nM; under setting [3], 138 nM.
As for “UGUCAGCGAAAGUUGACAUGCAGUGCCGGUCGAGGACCGGUACGGCCGCCACUCGAUCUCUCGUACAUGAGGAUCACCCAUGUCG [SS Tryp A #19]”, the “apparent KD of MS2 coat protein” value (input ligand: arginine 13.2 mM) was 14.4 nM, the “apparent KD of MS2 coat protein” value under setting [1] turned out to be 16.6 nM and the “apparent KD of MS2 coat protein” value under setting [2] was 14.9 nM.
